Assays:
[1] = substrate: O=C(O)C(=O)CCO; assay: OHB decarboxylase / pyruvate decarboxylase kinetics, Zm-Pdc W392Q; format: biochemical, Zymomonas mobilis; details: other: 37° C., pH 7, coupled to E. coli YqhD/NADPH
Method: (§1) OHB decarboxylase activity was assayed by coupling the decarboxylase activity to the NADPH-dependent reduction of the released 3-hydroxypropanal by purified aldehyde reductase, YqhD, from E. coli. The decarboxylation of pyruvate was coupled to the NADH-dependent reduction of acetaldehyde catalysed by yeast alcohol dehydrogenase. Branched-chain alpha-ketoacid decarboxylase activity was measured on 4-methyl-2-oxovaleric acid by coupling to the NADH-dependent reduction of 3-methylbutanal catalysed by horse liver alcohol dehydrogenase. […] Reactions were started by adding 20 mM 2-oxo-4-hydroxybutyrate (OHB), 10 mM 4-methyl-2-oxovaleric acid (MOV), or 5 mM pyruvate.
(§2) Site-directed mutagenesis of the L. lactis kdcA and the Z. mobilis Pdc genes was carried out using the oligonucleotide pairs listed in Table 9 and the pET28-Ll-kdcA and pET28-Zm-Pdc plasmids, respectively, as the template.
(§3) Mutant enzymes were expressed, purified and tested for OHB decarboxylase, pyruvate decarboxylase and MOV decarboxylase activity as described in Example 4.

[2] = substrate: CC(=O)C(=O)O; assay: as above; format: biochemical, Zymomonas mobilis; details: other: 37° C., pH 7, coupled to yeast alcohol dehydrogenase/NADH
Method: as §1, §2, §3

B1: Zymomonas mobilis pyruvate decarboxylase Zm-Pdc variant W392Q, SEQ ID No. 190 (Zymomonas mobilis subsp. mobilis ZM4 = ATCC 31821; W392Q) (protein)
chain: MSYTVGTYLAERLVQIGLKHHFAVAGDYNLVLLDNLLLNKNMEQVYCCNELNCGFSAEGYARAKGAAAAVVTYSVGALSAFDAIGGAYAENLPVILISGAPNNNDHAAGHVLHHALGKTDYHYQLEMAKNITAAAEAIYTPEEAPAKIDHVIKTALREKKPVYLEIACNIASMPCAAPGPASALFNDEASDEASLNAAVEETLKFIANRDKVAVLVGSKLRAAGAEEAAVKFADALGGAVATMAAAKSFFPEENPHYIGTSWGEVSYPGVEKTMKEADAVIALAPVFNDYSTTGWTDIPDPKKLVLAEPRSVVVNGIRFPSVHLKDYLTRLAQKVSKKTGALDFFKSLNAGELKKAAPADPSAPLVNAEIARQVEALLTPNTTVIAETGDSQFNAQRMKLPNGARVEYEMQWGHIGWSVPAAFGYAVGAPERRNILMVGDGSFQLTAQEVAQMVRLKLPVIIFLINNYGYTIEVMIHDGPYNNIKNWDYAGLMEVFNGNGGYDSGAGKGLKAKTGGELAEAIKVALANTDGPTLIECFIGREDCTEELVKWGKRVAAANSRKPVNKLL
B1 showed a Km [1] of 2.9 mM and a Km [2] of 9.2 mM.

— patent publication US9605283B2, “Microorganism modified for the production of 1,3-propanediol” (INSTITUT NATIONAL DES SCIENCES APPLIQUÉES, priority 2012, dated 2017)
